In the nanobody polyreactivity screen of Harvey et al. (2022):

Assay: yeast display, Sf9 membrane polyspecificity reagent, FACS + sequencing; frameworks hold sequencing errors
Method in brief: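 Using colony PCR, genes from sorted yeast display clones were amplified, then sequenced on MiSeq at 2 × 250 and filtered by CDR length. The clones had been stained with 10% biotinylated, detergent-solubilized Sf9 membrane reagent for 1 hour at 4 °C and sorted by FACS into low and high (top ~1%) gates on anti-HA and streptavidin fluorescence. Polyreactivity labels come from the gate of origin.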

| Sequence | polyreactivity (PSR sort gate) |
| --- | --- |
| QVQLVESGGGLVQAGGSLRLSCAASGGTFSYNAMGWYRQAPGKERELVAAISSRGGSTYYSDSVKGRFTISRDNAKNTDYLQMNSLKPEDTAVYYCNAVRGVWYGSWGQGTQVTVSS | high polyreactivity |
| QVQLVESGGGLVQAGGSLRLSCAASGRIFRGYAMGWSRQAPGKERELVAAITSRGGSTYADSVKGRFTISRDNAKNTVYLQMNSLKPEDTAVYYCNAGYRADSSKLVFRGYPRYDYWGQGTQVTVSS | low polyreactivity |
| QVQLVESGGGLVQAGGSLRLSCAASGSIFGRYAMGWYRPAPGKDRELVAAISDDSSTNYADSVKGRFTISRDNAKHNDYLQMHSLKPEVTAVYYCNADSWRYVAEGLWREYDYWGQGTQVTVSS | low polyreactivity |
| QVQLVESGGGLVQAGGSLRLSCAASGSIFQYNTMGWYRQAPGKERELVAAINWSGVSTYYADSVKGRFTISRDNAKNTVYLQMNILKPEDTAVYYCNARRYVDGSYIYDRGYWGQGTQVTVSS | high polyreactivity |
| QVQLVESGGGLVQAGGSLRLSSAASGSIFGVNAMGVYRQAPGKERELVASITGGDSTNYADSVKGRFTISRDNAKNTVYFQMNSLKPEDTAVYYCAKDHYYRYCAAEFVTEYLYGFVYEYDSWGQGTQVTVSS | low polyreactivity |
| QVQLVESGGGLVQAGGSLRLSCAASGSTFRRKVMGGYRQAPGKERELVASIRSGGTTNYADSVKGRFTISRDNAKNTVYLQMNSLKPEDTAVYYCNKRLFWYRHYYYLGQGTQVTVSS | high polyreactivity |
| QVQLVESGGGLVQAGGSLSLSCAATGRIFDGNVMGWYRQAPGKERELVAAISSGDSTNYADSVKGRFTISRDNAKNTVYLQRNSLKTEDTAVYDCNRTPNSGGYDRFYGGDFYYWGQGTQVTVSS | low polyreactivity |
| QVQLVESGGGLVQAGGSLRLSCAASGLTLYLYTMGWYRQAPRTDRELVASIDSGTSTKYADSVKGRFTISRDHAKYTVYLQMNRLKPVDTAGYDCAAGVWVTRYFGYYYWGQGTQVTVSS | low polyreactivity |
| QVQLVESVGGLVQAGGSLRLSCAASGRIFYRYGMGWYRQAPGKERELVASITRGGSTYYADSVKGRFTISRDNAKNTVYLQMNSLKPEDTAVYYCATKSSAGYDYWGQGTQVTVSS | low polyreactivity |
| QVQLVESGGGLVQAGGSLRLSCAASGRTFAINAMGWSRQAPGKEWELVASIRWTDGTTYYADSVKGRFTISRDNAKNTVYLQMNSLKPEDTAVYYCAADAEGSASKYDYWGQGTQVTVSS | low polyreactivity |
| QVQLVESGGGLLQAGGSLRLSCAASGGIIYYNAMGWSRQAPGKERELVAAIRYRGGSTYYADSVKGRFTISRDNEKNTVYLQMNSLKPEYTAVYYCAVDNLRRGLSLYDTLDYWGQGTQVTVSS | low polyreactivity |
| QVQLVESGGGLVQAGGSLRLSCAASARTFATYAMGWYRHAPGKEWELVAGITSGGNTYYADSVKGRFTISRDNAKNTVYLQMNSLKPVDTAVYYCAADRVYLGLFRYEYWGQGTQVTVSS | high polyreactivity |
| QVQLVESGGGLVQAGGSLRLSCAASGRIFNYYAMGWYRQAPGKERELVAAISSGGITNYADSVKGRFTISRDNAKNTVYLQMNSLKPEDTAVYYCAADRSNRPYYRQGYDYWGQGTQVTVSS | high polyreactivity |
| QVQLVEAGGGLVQAGGSLRLSCAASGITYSKYANGWYIQAPWKERELVAAISQRGGSTYYADSVKGRFTISRDNAKNTVYLQMNSLKPEDTAVYYCNAEFYWSIIAYEYWGQGTQVTVSS | high polyreactivity |
| QVQLVETGGGLVQAGGSLRLSCAASGRTFQYYAMGWYRQATGTERELVAAITSGGSTYYADSVKGRFTISRDNAKKTVYLQMNSLKPEDTAVSYCAATFYYSGHDDYWGQVTQVTVSS | low polyreactivity |
| QVQLVESGGGLVQAGGSLRLSCAASGLTFVVYAMGWYRQAPGKERELVAAISSTGNTYYADSEKGRFTISRDNAKNTVYLQMNSLKPEDTAVYYCAAERSFYWYHFDYWGQGTQVTVSS | high polyreactivity |
| QVQLVESGGGLVQAGGRLRLICAAYGSTFSLYALGWYRQAPGKERELVADINSGGGTYYADSVKGRFTISRDNAKNTVYLQMNSVKPEDTAVYYCNAPVARGEASYYWGHGTQVTVSS | high polyreactivity |
| QVQLVESGGGLVQAGGSLRLSCAASGRTFNWYAMGWYRQAPGKERELVAAISSRGGSTYADSVKGRFTISRDNAKNTVYLQMNSLKPEDTAVYYCAARHHGTKYDYWGLGTQVTVSS | low polyreactivity |
| QVQLVESGGGLFQAGGSLRLSCAASGRIYPTYTMGWYRQAPGKERQLVAAINRGGGSTYYADSVKGRFTISRDYAKNTVYLQMICLKPEDTAVYYCNARTYYRSYGYDYWGQGTQVTVSS | low polyreactivity |
| QVQLVESGGGLVQAGGSLRLSCAASGSTFTINVMGWYRQAPGKERELVAAINGGGRTNYADSVKGRFTFSRDNAKNTVYLQMNSLKPEDTAVYYCAADGLSHVRQMDYWGQGTQVTVSS | low polyreactivity |
| QVQLVESGGGLVQAGGSLRLSCAASGGTFYIYVMGWYRQAPGKERELVAAITSGDSTNYADSVKGRFTISRDNAKNTVYLQMNSLKPEDTAVYYCATGYWELRYDYWGQGTQVTVSS | low polyreactivity |
| QVQLVESGGGLVQAGGSLRLSCAASGIIFGRYAMGWYRQAPGKERELVAVISRSGGSTYYADSVKGRFTISRDNAKNTVYLQMNSLKPEDTAVYYCAARYTPTYNAGLDYWGQGTQVTVSS | high polyreactivity |

| Sequence | polyreactivity (PSR sort gate) |
| --- | --- |
| QVQLVESGGGLVQAGGSLRLSCAASGSIFTFNAMGWYRQAPGKERELVASINWSGGSTYYADSVKGRFTISRDNAKNTVYLQMNSLKPEDTAVYYCNKRRNGYGSQFYYPYDYWGQGTQVTVSS | low polyreactivity |
| QVQLVESGGGLVQAGGSLRLSCAASGIIIDYYTMGWYRQAPGKERELVAAINKSGGSTYADSVKGRFTISRDNAKNTVYLQMNSLKPEDNAVYYCAAEVDYSYWPEYARKYYYWGQGTQVTVSS | low polyreactivity |
| QVLLQESGGGLVQAGGSLRLSCAASGSIFLIYTMGWYRHAPVKEREFVAGITLGTTTYNADSVKGRFTISRDNVKNTVYLKMNILKPEDTEVYYCAVAVGHYTEFWYWGQGTQVTMSS | high polyreactivity |
| QVQLVESGGGLVQAGGSLRLSCAASGSTLYRNAMGWYRQQPGKERELVAGITSSGTTTYYADSVKGRFTISRDNAKNTVYLQMNSLKPEDTAVYYCAARSLGFYYYDMDYWGQGTQVTVSS | low polyreactivity |
| QLQLVESGGGLVQAGGSLRLSCAASGFIFYLYAMGWYRQAPGKDRELVAAISWSGGITYYADSVKGRFTISRDNAKNTVYLQMNSLKPEDTAVNYCNAVGASASDGDSWGQGTQVTVSS | high polyreactivity |
| QGQLGESGGGLVQAGGSLRLSCAASGGTFYYYAMGWYRHAPGKEREFVAAITWTGGRTYYADSVKGRFTISRDNAKNTVYLQMNSLKPEDSAVYYCAASDRYGGRDYWGQGTQVTVSS | high polyreactivity |
| QVQHVESGGGLVQAGGSLRLSCAASGRIIPGNAMGWYRQAPGKERDLVAAISYGGGSTYYADSVKGRFTISRDNAKNTVYLQMNSLKPEATAVYYCNAGWIRNYGFSIVTYDYWGQGTQVTVSS | low polyreactivity |
| QVHLVESGGGLVQAVVSLRLSCAASGTTFVSYAMGWYRHATGKERELVAGISWSGTRTYYADSVKGRFTISRDNAMNTVYLQMNSLKPEDSAVYYCNAVYIYNYRTLDYWGQGTQVTVSS | high polyreactivity |
| QVQLVESGGGLVQAGGSLRLSCAASGRTFAVYAMGWYRQAPGKERELVAAISYSGDSTYYADSVKGRFTISRDNAKYTVYLQMNSLKPEDTAVYYCAADFLVGLTAVAYEYWGQGTQVTVSS | low polyreactivity |
| QVQLVESGGGLVQAGGSLRLSCAASGSIFHPYTMGWSRQAPGKERELVAAISWSGGRTYYADSVKGRFTISRDNAKNTVYLQMNSLKPEDTAVYYCAADVTLWYDSWGQGTQVTVSS | low polyreactivity |
| QVQLVESGGGLVQAGGSLRLSCAASGSTFNKYTMGWYRQAPGKERELVAAITSGDSTYYADSVKGRFTISRDNAKNTVYLQMNSLKPEDTAVYYCAADVRYFDPFDWWGSLVLAYDYWGQGTQVTVSS | low polyreactivity |
| QVQLVESGGGLVQAGGSLRLSCAASGRTFSTNAMGLYRQAPGKERELVAAISASGGSTYYADSVKGRFTISRDNAKTTVYLQMNSLKPEDTAVYYCAAYPGQWRTGYDYWGQGTQVTVSS | high polyreactivity |
| QVQLVESGGGLVQAGGSLRLSCAASGYIFPKNAMGWYRQAPGKERELVAAITGSGGSTYYADSVKGRFTISRDNAKNTVYLQMNSLKPEDTAVYYCAKRSWIEYDYWGQGTQVTVSS | low polyreactivity |
| QVQLVESGGGLVQAGGSLRLSCAASGRTFLWYAMGWYRQAPGKERELVAAIRWRGTSTYYADSVKGRFTISRDNAKNTVYLQMNSLKPEDTAVYYCAAKVRSLYWFDYWGQGTQVTVSS | high polyreactivity |
| QVQLVESGGGLVQAGGSLRLSCAASGRTFIYNTMGWYRQAPGKERELFAAISSGGSTNYADSVKGRFTISRDNAKNTVYLQMNSLKPEDTAVYYCATQGLSAPFDGFVNSRFDHRGQGTQVTVSS | low polyreactivity |
| QVQLVESGGGLVQAGGSLRLSCAASGSTFWYNMGWYRQAPGKERELVAAISYSSGRTYYADSVKGRFTISRDNAKNTVYLQMNSLKPEDTAVYYCAARYPRTRRYGYWGQGTQVTVSS | high polyreactivity |
| QLQLVESGGGLVQAGGSLRLSCAASGSTFRYYAMGWYRQAPGKERELVAAISRTGGSTYYADSVKVRFTISRDNAKNTVYLQMNSLKPEDTAVYYCNVRQFLNRYTSWDYRYHYDYWGQGSQVTVSS | high polyreactivity |
| QVQLVESGGGLVQAGGSLRLSCAGSGSTFRSNAMGWYRQAPGKERELVAAISQRGGSTYYADSVKGRFTISRDNAKNTVYLQMNSLKPEDTAVYYCAAQYFRRSGYWGQGTQVTVSS | high polyreactivity |
| QVQLVESGGGLVQAGGSLRLSCAASGFIFSWYAMGWYRQAPGKERELVARISSSGGNTYYADSVKGRFTISRDNAKNTVYLQMNSLKPEDTAVYYCAAGYRYRYDYWGQGTQVTVSS | high polyreactivity |
| QVQLVESGGGLVQAGGSLRLSCAASGSTFDGNAMGWYRQAPGKESELVAAISWSGGSTYYADSVKGRFTISRDNAKNSVYLQLNSLKPEDTAVYYCNAVHYPYQHMGSWGQGTQVSVSS | low polyreactivity |
| QVQLVESGGGLVQAGGSLRLSCAASGIIFDSNVMGWYRQAPGKERELVAAISRSGSRTYYADSVKGRFTISRDNSKNTVYLEMNSLKPEDTAVYYCATDSHTADEYEHWGQGTQVTVSS | high polyreactivity |
